Experiments:
Conditions in all cases: both partners purified
[1] = biological target: T1, human glucose‐regulated protein 78 (hGRP78), full-length (Homo sapiens (Human)., UniProt P11021); assay: SPR; Biacore T100; […] (10 µg mL^-1) […]; association 120 s, dissociation 300 s; […]
T1 construct: also called BiP; HSPA5

mouse GRP78 (mGRP78) = biological target: T2, mouse GRP78 (mGRP78) (Mus musculus (Mouse)., UniProt P20029); assay: ELISA; hGRP78 or mGRP78 (10 µg mL^-1) immobilised on plates overnight at 4 °C; blocked with 3% BSA/PBS; serially diluted HA‐tagged Nbs 1 h at RT; HRP anti‐HA; OD450
T2 construct: also called murine GRP78

BSA protein = BSA protein (Bos taurus (Bovine)., UniProt P02769); assay: ELISA; Nbs tested on BSA protein (Figure S7); details not shown
Sequence of BSA protein (P02769 25-607): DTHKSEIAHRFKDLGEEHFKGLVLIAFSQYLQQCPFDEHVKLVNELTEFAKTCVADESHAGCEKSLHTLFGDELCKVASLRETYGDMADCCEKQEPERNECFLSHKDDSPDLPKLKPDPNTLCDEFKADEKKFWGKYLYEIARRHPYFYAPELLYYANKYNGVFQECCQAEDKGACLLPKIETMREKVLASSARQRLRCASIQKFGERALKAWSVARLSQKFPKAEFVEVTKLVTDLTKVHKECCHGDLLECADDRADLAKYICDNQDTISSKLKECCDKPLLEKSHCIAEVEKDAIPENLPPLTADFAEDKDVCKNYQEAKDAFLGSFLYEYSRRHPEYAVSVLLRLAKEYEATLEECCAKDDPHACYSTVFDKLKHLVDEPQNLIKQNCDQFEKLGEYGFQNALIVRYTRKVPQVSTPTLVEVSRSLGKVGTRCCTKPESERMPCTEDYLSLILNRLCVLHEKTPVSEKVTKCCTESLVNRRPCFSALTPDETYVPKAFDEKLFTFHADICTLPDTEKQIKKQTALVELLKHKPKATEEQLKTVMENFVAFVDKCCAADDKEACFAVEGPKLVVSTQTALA

T2 sequence (P20029 20-655): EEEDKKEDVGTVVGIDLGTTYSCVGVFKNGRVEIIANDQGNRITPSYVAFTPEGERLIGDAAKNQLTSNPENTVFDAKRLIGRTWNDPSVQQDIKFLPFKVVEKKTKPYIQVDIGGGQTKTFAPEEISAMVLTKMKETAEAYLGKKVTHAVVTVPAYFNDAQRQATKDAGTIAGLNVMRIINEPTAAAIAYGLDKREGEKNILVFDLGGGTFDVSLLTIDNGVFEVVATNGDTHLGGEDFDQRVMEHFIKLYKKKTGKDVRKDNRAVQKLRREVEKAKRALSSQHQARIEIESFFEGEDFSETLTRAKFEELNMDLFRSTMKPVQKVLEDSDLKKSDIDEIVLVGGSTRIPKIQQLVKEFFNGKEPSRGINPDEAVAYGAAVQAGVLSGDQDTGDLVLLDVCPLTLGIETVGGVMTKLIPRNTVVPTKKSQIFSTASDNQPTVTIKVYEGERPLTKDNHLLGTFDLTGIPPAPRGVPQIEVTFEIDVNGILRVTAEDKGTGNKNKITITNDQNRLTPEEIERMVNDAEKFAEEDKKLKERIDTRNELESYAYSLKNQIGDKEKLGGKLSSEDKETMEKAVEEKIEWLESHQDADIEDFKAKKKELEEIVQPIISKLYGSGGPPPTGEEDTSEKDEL
T1 sequence (P11021 19-654): as the sequence (P20029 20-655) above, with F295Y, G620A, S631A counted along it

B1: Nb NBD1 (VHH)
VHH: AVQLVESGGGSVQAGGSLTLSCAASINTGNPALVGWYRQAPGKQREMVAMISISGNTNYAPSVKGRFTISRDNANKTIFLQMNSLTPEDTAVYYCKKLPFGSWGQGTQVTVSS
notes: source: E. coli BL21 (DE3), purified (Ni‐NTA, AKTA Pure System)
Kd [1]: 3.4 nM
binding result (mouse GRP78 (mGRP78)): binds
binding result (BSA protein): no binding

Source: PMC12097070 (Advanced Science, 2025)
